Changes are numbered by the printed parent chain. Names may count otherwise.
Biological target: T1, PUF4 RNA-binding domain (Saccharomyces cerevisiae, UniProt P25339 537-888)
T1 sequence: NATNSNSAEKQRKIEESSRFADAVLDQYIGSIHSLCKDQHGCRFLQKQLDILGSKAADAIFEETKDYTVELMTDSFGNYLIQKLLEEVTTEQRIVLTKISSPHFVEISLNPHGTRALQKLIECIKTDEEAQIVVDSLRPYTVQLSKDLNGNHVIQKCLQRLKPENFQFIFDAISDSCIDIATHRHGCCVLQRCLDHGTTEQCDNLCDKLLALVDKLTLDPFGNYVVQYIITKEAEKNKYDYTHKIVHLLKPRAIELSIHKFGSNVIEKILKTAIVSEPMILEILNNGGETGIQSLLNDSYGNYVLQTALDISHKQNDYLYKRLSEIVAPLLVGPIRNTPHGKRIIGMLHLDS
Experiment: Mg; RNA-MaP; 20 mM Na-HEPES pH 7.4, 30 mM KOAc, 0.75 mM MgCl2, 0.1% Tween-20, 5% glycerol, 0.1 mg/mL BSA, 2 mM DTT; 25 C; 0.0125-409.6 nM protein
Details: tags: N-His6-TEV cleaved; C-SNAP kept, Cy3B-labelled; label: tethered on chip by stalled RNA polymerase

B1: Ic_S2_P4E.1_K4.1_C4.1_H4.1_A4.1_[T5G]_[A6T]_[T7C]_F4.1_[T8C]_[A9G]_T4.1 (ssRNA)
RNA: UUUGAUUAAUAUGAUAUCGUUCUUUCUUGUAGUCCGUUCUUUCUCGAUAUCAUAUUAAUCUUU
Kd: 732 nM

B2: Ic_S2_P4E.1_K4.1_C4.1_H4.1_A4.1_[T5G]_[A6T]_[T7C]_F4.1_[T8C]_[A9C]_T4.1 (ssRNA)
RNA: B1 RNA with G36C
Kd: 473 nM

B3: Ic_S2_P4E.1_K4.1_C4.1_H4.1_A4.1_[T5G]_[A6T]_[T7C]_F4.1_[T8C]_[A9T]_T4.1 (ssRNA)
RNA: B1 RNA with G36U
Kd: 121 nM

B4: Ic_S2_P4E.1_K4.1_C4.1_H4.1_A4.1_[T5G]_[A6T]_[T7C]_F4.1_[T8C]_T4.1 (ssRNA)
RNA: B1 RNA with G36A
Kd: 527 nM

B5: Ic_S2_P4E.1_K4.1_C4.1_H4.1_A4.1_[T5G]_[A6T]_[T7C]_F4.1_[A9C]_T4.1 (ssRNA)
RNA: B1 RNA with C35U, G36C
Kd: 149 nM

B6: Ic_S2_P4E.1_K4.1_C4.1_H4.1_A4.1_[T5G]_[A6T]_[T7C]_F4.1_[A9T]_T4.1 (ssRNA)
RNA: B1 RNA with C35U, G36U
Kd: 41.9 nM

B7: Ic_S2_P4E.1_K4.1_C4.1_H4.1_A4.1_[T5G]_[A6T]_[T7C]_F4.1_T4.1 (ssRNA)
RNA: B1 RNA with C35U, G36A
Kd: 4.56 nM

B8: Ic_S2_P4E.1_K4.1_C4.1_H4.1_A4.1_[T5G]_[A6T]_[T7A]_F4.1_[T8G]_[A9T]_T4.1 (ssRNA)
RNA: B1 RNA with C34A, C35G, G36U
Kd: 984 nM

B9: Ic_S2_P4E.1_K4.1_C4.1_H4.1_A4.1_[T5G]_[A6T]_[T7A]_F4.1_[T8A]_[A9T]_T4.1 (ssRNA)
RNA: B1 RNA with C34A, C35A, G36U
Kd: 342 nM

B10: Ic_S2_P4E.1_K4.1_C4.1_H4.1_A4.1_[T5G]_[A6T]_[T7A]_F4.1_[T8A]_T4.1 (ssRNA)
RNA: B1 RNA with C34A, C35A, G36A
Kd: 407 nM

UCUCUUUGUGUGUAUCUCUU (ssRNA) [Ib_S1_P3E.1_K3.1_C3.1_H3.1_[A4G]_A3.1_[A6G]_F3.1_T3.1]
Kd: 178 nM

B11: Ic_S2_P4E.1_K4.1_C4.1_H4.1_A4.1_[T5G]_[A6T]_[T7A]_F4.1_[A9T]_T4.1 (ssRNA)
RNA: B1 RNA with C34A, C35U, G36U
Kd: 26.4 nM

B12: Ic_S2_P4E.1_K4.1_C4.1_H4.1_A4.1_[T5G]_[A6T]_[T7A]_F4.1_T4.1 (ssRNA)
RNA: B1 RNA with C34A, C35U, G36A
Kd: 2.26 nM

B13: Ic_S2_P4E.1_K4.1_C4.1_H4.1_A4.1_[T5G]_[A6T]_F4.1_[T8G]_[A9C]_T4.1 (ssRNA)
RNA: B1 RNA with C34U, C35G, G36C
Kd: 588 nM

B14: Ic_S2_P4E.1_K4.1_C4.1_H4.1_A4.1_[T5G]_[A6T]_F4.1_[T8C]_[A9G]_T4.1 (ssRNA)
RNA: B1 RNA with C34U
Kd: 550 nM

B15: Ic_S2_P4E.1_K4.1_C4.1_H4.1_A4.1_[T5G]_[A6T]_F4.1_[T8C]_[A9C]_T4.1 (ssRNA)
RNA: B1 RNA with C34U, G36C
Kd: 257 nM

B16: Ic_S2_P4E.1_K4.1_C4.1_H4.1_A4.1_[T5G]_[A6T]_F4.1_[T8A]_[A9T]_T4.1 (ssRNA)
RNA: B1 RNA with C34U, C35A, G36U
Kd: 148 nM

B17: Ic_S2_P4E.1_K4.1_C4.1_H4.1_A4.1_[T5G]_[A6T]_F4.1_[A9G]_T4.1 (ssRNA)
RNA: B1 RNA with C34U, C35U
Kd: 95.3 nM

B18: Ic_S2_P4E.1_K4.1_C4.1_H4.1_A4.1_[T5C]_[A6G]_[T7G]_F4.1_[T8C]_[A9C]_T4.1 (ssRNA)
RNA: B1 RNA with G32C, U33G, C34G, G36C
Kd: 830 nM

B19: Ic_S2_P4E.1_K4.1_C4.1_H4.1_A4.1_[T5C]_[A6G]_[T7G]_F4.1_[A9T]_T4.1 (ssRNA)
RNA: B1 RNA with G32C, U33G, C34G, C35U, G36U
Kd: 109 nM

B20: Ic_S2_P4E.1_K4.1_C4.1_H4.1_A4.1_[T5C]_[A6G]_[T7C]_F4.1_[T8G]_[A9C]_T4.1 (ssRNA)
RNA: B1 RNA with G32C, U33G, C35G, G36C
Kd: 573 nM

UCUCUUUGUGUCUAUCUCUU (ssRNA) [Ib_S1_P3E.1_K3.1_C3.1_H3.1_[A4G]_A3.1_[A6C]_F3.1_T3.1]
Kd: 983 nM

B21: Ic_S2_P4E.1_K4.1_C4.1_H4.1_A4.1_[T5C]_[A6G]_[T7C]_F4.1_[T8G]_[A9T]_T4.1 (ssRNA)
RNA: B1 RNA with G32C, U33G, C35G, G36U
Kd: 332 nM

B22: Ic_S2_P4E.1_K4.1_C4.1_H4.1_A4.1_[T5C]_[A6G]_[T7C]_F4.1_[T8C]_[A9G]_T4.1 (ssRNA)
RNA: B1 RNA with G32C, U33G
Kd: 501 nM

B23: Ic_S2_P4E.1_K4.1_C4.1_H4.1_A4.1_[T5C]_[A6G]_[T7C]_F4.1_[T8C]_[A9T]_T4.1 (ssRNA)
RNA: B1 RNA with G32C, U33G, G36U
Kd: 81.6 nM

B24: Ic_S2_P4E.1_K4.1_C4.1_H4.1_A4.1_[T5C]_[A6G]_[T7C]_F4.1_[T8C]_T4.1 (ssRNA)
RNA: B1 RNA with G32C, U33G, G36A
Kd: 22.8 nM

B25: Ic_S2_P4E.1_K4.1_C4.1_H4.1_A4.1_[T5C]_[A6G]_[T7C]_F4.1_[T8A]_[A9T]_T4.1 (ssRNA)
RNA: B1 RNA with G32C, U33G, C35A, G36U
Kd: 235 nM

B26: Ic_S2_P4E.1_K4.1_C4.1_H4.1_A4.1_[T5C]_[A6G]_[T7C]_F4.1_[A9G]_T4.1 (ssRNA)
RNA: B1 RNA with G32C, U33G, C35U
Kd: 31.1 nM

B27: Ic_S2_P4E.1_K4.1_C4.1_H4.1_A4.1_[T5C]_[A6G]_[T7C]_F4.1_[A9C]_T4.1 (ssRNA)
RNA: B1 RNA with G32C, U33G, C35U, G36C
Kd: 28.3 nM
